Experimental data: patent publication US20050038611

Target: T1, ribosomal protein S8 (Staphylococcus aureus) (UniProt A6U3W1)
T1 sequence: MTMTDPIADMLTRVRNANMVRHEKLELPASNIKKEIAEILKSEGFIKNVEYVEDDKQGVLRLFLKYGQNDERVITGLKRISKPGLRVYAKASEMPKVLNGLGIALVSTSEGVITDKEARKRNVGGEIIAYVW
Experiment: filter
Settings: 80 mM HEPES-KOH pH 7.6, 350 mM KOAc, 20 mM MgOAc, on ice

For “S. aureus Helix 21 rRNA wild type (nts 596-659 of 16S rRNA)”, the Kd was 400 nM.

In the case of S. aureus Helix 21 A604-U652 to G-C, the binding signal (fold decrease in affinity vs wild type) (apparent Kd in Table 5 not given) is reported as 10.
